Experimental data taken from patent CN116723860A (NOVARTIS AG, dated 2023).
Each block holds one binder with its values, some of them ahead of it.

Legend:
[1] = biological target: T1, 重组人IL-18 (human, UniProt Q14116 37-193); test: SET, single target binding assay
T1 construct: also called huIL-18; BTP 25829

[2] = biological target: T2, 重组人IL-1β (human, UniProt P01584 117-269); test: solution equilibrium titration (SET), single target binding assay, mean KD
T2 construct: also called huIL-1β; IL-1b

binding result [1]: binds
B1: mAb1 (antibody, human IgG1, lambda, L234A L235A, V domains shown)
VH: EVQLVQSGAEVKKPGSSVKVSCKASGGTFKSYAISWVRQAPGQGLEWMGNIIPMTGQTYYAQKFQGRVTITADESTSTAYMELSSLRSEDTAVYYCARAAYHPLVFDNWGQGTLVTVSS
VL: DIVLTQPPSVSGAPGQRVTISCSGSSSNIGNHYVNWYQQLPGTAPKLLIYRNNHRPSGVPDRFSGSKSGTSASLAITGLQSEDEADYYCQSWDYSGFSTVFGGGTKLTVLG
notes: Human anti-IL-18 antibody, bivalent; also called IL-18抗体

Kd [2]: 0.6 pM
B2: mAb2 (antibody, human IgG1, kappa, V domains shown)
VH: QVQLVESGGGVVQPGRSLRLSCAASGFTFSVYGMNWVRQAPGKGLEWVAIIWYDGDNQYYADSVKGRFTISRDNSKNTLYLQMNGLRAEDTAVYYCARDLRTGPFDYWGQGTLVTVSS
VL: EIVLTQSPDFQSVTPKEKVTITCRASQSIGSSLHWYQQKPDQSPKLLIKYASQSFSGVPSRFSGSGSGTDFTLTINSLEAEDAAAYYCHQSSSLPFTFGPGTKVDIKR
notes: Human anti-IL-1β antibody, bivalent; also called IL-1β抗体; 卡那吉努单抗 (canakinumab)
